# Like-named read-outs stand apart in the source and are kept apart here.
# Legend:
# [1] = target: CD20 (human) (UniProt P11836); assay: method not stated
# [2] = in vitro; Pavillard et al.; cited from earlier work
# [3] = cited from earlier work; for Km: Humerickhouse et al., read-out: Km (CPT-11 conversion)
# [4] = patients treated with 200 mg/m2 CPT-11; for at least 24 hours; Ducreux et al.; cited from earlier work
# [5] = target: T1, CD20 (Homo sapiens, UniProt P11836); assay: affinity of monovalent AME133 Fab for CD20; type: binding
# T1 sequence (P11836 1-297): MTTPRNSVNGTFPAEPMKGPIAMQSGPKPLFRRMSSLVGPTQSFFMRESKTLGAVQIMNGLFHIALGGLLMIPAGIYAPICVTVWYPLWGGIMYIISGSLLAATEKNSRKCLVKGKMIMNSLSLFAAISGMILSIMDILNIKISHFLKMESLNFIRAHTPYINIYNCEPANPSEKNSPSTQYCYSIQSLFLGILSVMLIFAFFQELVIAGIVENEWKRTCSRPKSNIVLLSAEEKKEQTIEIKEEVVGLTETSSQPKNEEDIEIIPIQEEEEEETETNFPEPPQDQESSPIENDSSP
# Description: AME133 is a humanized anti-CD20 with fully human germline framework regions shown in FIGS. 19 and 20 and set forth as SEQ ID NOS: 198 and 200, with corresponding nucleic acid sequences SEQ ID NOS: 197 and 199. This antibody was generated at Applied Molecular Evolution using the company's directed evolution strategies, and the monovalent Fab binds to CD20 with extremely high affinity (1×10^−9 M). Anti-CD20-BChE.4-1 (SEQ ID NO: 202) is composed of AME133 Fab fused at the C-terminal end of the CH1 heavy chain domain to the N-terminus of modified BChE variant L530 (SEQ ID NO: 204), which is a functional fragment of reference SEQ ID NO: 180. The BChE variant was truncated at amino acid 530 to abrogate its normal assembly into tetramers.
# [6] = CPT-11 hydrolysis by BChE variant 4-1, SN38 quantitated by reverse-phase HPLC, Km by Hofstee plot; type: biochemical; details: for Km / fold increase in CPT-11 hydrolysis over wild-type BChE: 37° C., 24 hours; for Km: 1-80 μM CPT-11; for fold increase in CPT-11 hydrolysis over wild-type BChE: SN38 peak AUC; for fold improvement in the Km for CPT-11: over wild-type / native serum BChE
# Description: BChE plasmid variants were expressed transiently in the human embryonic kidney cell line 293T and assayed for activity at 72 hours post-transfection. Primary screening of variants was performed by indirect measurement of enzymatic activation of CPT-11 (FIG. 2) in SW48 colon carcinoma cell cytotoxicity assays. […] Functional hits identified in these assays were characterized by sequence analysis of the corresponding DNA from the original preps. […] Enzyme was incubated at 37° C. for 24 hours with CPT-11 over a range of concentrations from 1-80 μM. […] Velocity (v) is in light absorbance units at 540 nm. Substrate concentration [s] is μM CPT-11.
# Samples were acidified and resolved by reverse-phase HPLC on a NovaPak C18 column to separate SN38 from unactivated CPT-11. SN38 peak area under the curve (AUC) was used to compare CPT-11 activation by the wild-type enzyme to the optimized BChE.4-1 variant.
# [7] = o-nitrophenyl acetate (o-NPA) hydrolysis assay for carboxylesterase activity of antibody-captured butyrylcholinesterase variants; type: biochemical; details: antibody capture/normalization
# Description: A modification of this assay that measures o-NPA activity of butyrylcholinesterase variants normalized by capturing with an anti-butyrylcholinesterase antibody was performed as described below.
# Protocol to Determine Carboxylesterase activity of Captured Butyrylcholinesterase by o-Nitrophenyl acetate:
# 1) Coat 96-well Immulon 2 plates with rabbit anti-human butyrylcholinesterase (Dako #A0032) at 10 mg/ml in PBS (100 ml/well) overnight at 4° C. 2) Remove coating solution and block plate with 3% BSA in PBS (250 ml/well) for 2 hours at room temperature. 3) Add 200 ml butyrylcholinesterase variant conditioned media and incubate at RT for 2 hrs. 4) Wash plate 3 times with 250 ml/well PBS. 5) Add 85 ml/well 0.1 M potassium phosphate pH 7.0 6) Add 13.6 mg o-NPA to 100 ml acetonitrile, mix to dissolve. Add 100 ml of this stock to 6.3 mls water and mix well. 7) Wash plate 3 times with PBS. 8) Add 15 ml of diluted o-NPA substrate. 9) Read absorbance at 405 nm.
# Conditioned media from butyrylcholinesterase variants that were transiently expressed in 293T cells was tested using the above described anti-butyrylcholinesterase antibody capture/normalization assay for carboxylesterase activity. […] The level of activity of the other variants can be compared to the level of activity of F227A. […] In order to determine the amount of variability present in the assay, several wells contained the same variant. […]
# [8] = HPLC assay of CPT-11 conversion to SN-38 by conditioned media of transiently expressed BChE variants; type: biochemical; details: conditioned media
# Description: Butyrylcholinesterase variants were assayed for CPT-11 conversion activity using fluorescent High Performance Liquid Chromotography (HPLC) detection of SN-38 formation as described in Dodds and Rivory, Mol. Pharmacol. 56:1346-1353 (1999), which is incorporated herein by reference. Briefly, conditioned media from transiently expressed BChE variants were exposed to 20 mM CPT-11 for 72 hours at 37° C. and analyzed by HPLC for SN-38 formation (peak at about 4 minutes column retention time).
molecule,measurement,setting,value
AME133 Fab (humanized anti-CD20 with fully human germline framework regions),Kd,[1],1 nM
"CCc1c2c(nc3ccc(O)cc13)-c1cc3c(c(=O)n1C2)COC(=O)[C@]3(O)CC [SN38, 7-ethyl-10-hydroxycamptothecin]",fold more cytotoxic than CPT-11,[2],greater than 1000 fold
hCE-1,Km,[3],43 µM
"CCc1c2c(nc3ccc(OC(=O)N4CCC(N5CCCCC5)CC4)cc13)-c1cc3c(c(=O)n1C2)COC(=O)[C@]3(O)CC [CPT-11, 7-ethyl-10-[4-(1-piperidino)-1-piperidine]carbonyloxycamptothecin]",plasma concentration of CPT-11,[4],above 0.1 μM
"AME133 (protein, Synthetic butyrylcholinesterase variant; MISC_FEATURE (1)..(213): Anti-CD20 antibody light chain; MISC_FEATURE (1)..(765): Anti-CD20 antibody VH-CH1 hinge cys L530 BChE.4-1 heavy chain construct) light: EIVLTQSPGTLSLSPGERATLSCRASSSVPYIHWYQQKPGQAPRLLIYATSALASGIPDRFSGSGSGTDFTLTISRLEPEDFAVYYCQQWLSNPPTFGQGTKLEIKRTVAAPSVFIFPPSDEQLKSGTASVVCLLNNFYPREAKVQWKVDNALQSGNSQESVTEQDSKDSTYSLSSTLTLSKADYEKHKVYACEVTHQGLSSPVTKSFNRGEC heavy: EVQLVQSGAEVKKPGESLKISCKGSGRTFTSYNMHWVRQMPGKGLEWMGAIYPLTGDTSYNQKSKLQVTISADKSISTAYLQWSSLKASDTAMYYCARSTYVGGDWQFDVWGKGTTVTVSSASTKGPSVFPLAPSSKSTSGGTAALGCLVKDYFPEPVTVSWNSGALTSGVHTFPAVLQSSGLYSLSSVVTVPSSSLGTQTYICNVNHKPSNTKVDKKAEPKSCDKTHTCPPCPKLEDDIIIATKNGKVRGMNLTVFGGTVTAFLGIPYAQPPLGRLRFKKPQSLTKWSDIWNATKYANSCCQNIDQSFPGFFGSEMWNPNTDLSEDCLYLNVWIPAPKPKNATVLIWIYGGGFQTGTSSLHVYDGKFLARVERVIVVSMNYRVGALGFLALPGNPEAPGNMGLFDQQLALQWVQKNIAAFGGNPKSVTLFGESAGAASVSLHLLSPGSHSLFTRAILQSGSANAPWAVTSLYEARNRTLNLAKLTGCSRENETEIIKCLRNKDPQEILLNEAFVVPYGTNLSVNFGPTVDGDFLTDMPDILLELGQFKKTQILVGVNKDEGTAFLAYGAPGFSKDNNSIITRKEFQEGLKIFFPGVSEFGKESILFHYTDWVDDQRPENYREALGDVVGDYNFICPALEFTKKFSEWGNNAFFYYFEHRSSKLPWPEWMGVMHGYEIEFVFGLPLERRDNYTKAEEILSRSIVKRWANFAKYGNPNETQNNSTSWPVFKSTEQKYLTLNTESTRIMTKLRAQQCRFWTSFFPKV",Kd,[5],1 nM
"hCE-2 (protein, UniProt O00748 27-559, looked up) Cocaine esterase: QDSASPIRTTHTGQVLGSLVHVKGANAGVQTFLGIPFAKPPLGPLRFAPPEPPESWSGVRDGTTHPAMCLQDLTAVESEFLSQFNMTFPSDSMSEDCLYLSIYTPAHSHEGSNLPVMVWIHGGALVFGMASLYDGSMLAALENVVVVIIQYRLGVLGFFSTGDKHATGNWGYLDQVAALRWVQQNIAHFGGNPDRVTIFGESAGGTSVSSLVVSPISQGLFHGAIMESGVALLPGLIASSADVISTVVANLSACDQVDSEALVGCLRGKSKEEILAINKPFKMIPGVVDGVFLPRHPQELLASADFQPVPSIVGVNNNEFGWLIPKVMRIYDTQKEMDREASQAALQKMLTLLMLPPTFGDLLREEYIGDNGDPQTLQAQFQEMMADSMFVIPALQVAHFQCSRAPVYFYEFQHQPSWLKNIRPPHMKADHGDELPFVFRSFFGGNYIKFTEEEEQLSRKMMKYWANFARNGNPNGEGLPHWPLFDQEEQYLQLNLQPAVGRALKAHRLQFWKKALPQKIQELEEPEERHTEL",Km,[3],3.4 µM
same,"rate of CPT-11 conversion to SN38, fold higher than hCE-1",[3]; at pharmacologically relevant drug concentrations (˜1-10 μM),25-30 fold
"wild-type butyrylcholinesterase (protein, UniProt P06276 29-602, looked up) Cholinesterase: EDDIIIATKNGKVRGMNLTVFGGTVTAFLGIPYAQPPLGRLRFKKPQSLTKWSDIWNATKYANSCCQNIDQSFPGFHGSEMWNPNTDLSEDCLYLNVWIPAPKPKNATVLIWIYGGGFQTGTSSLHVYDGKFLARVERVIVVSMNYRVGALGFLALPGNPEAPGNMGLFDQQLALQWVQKNIAAFGGNPKSVTLFGESAGAASVSLHLLSPGSHSLFTRAILQSGSFNAPWAVTSLYEARNRTLNLAKLTGCSRENETEIIKCLRNKDPQEILLNEAFVVPYGTPLSVNFGPTVDGDFLTDMPDILLELGQFKKTQILVGVNKDEGTAFLVYGAPGFSKDNNSIITRKEFQEGLKIFFPGVSEFGKESILFHYTDWVDDQRPENYREALGDVVGDYNFICPALEFTKKFSEWGNNAFFYYFEHRSSKLPWPEWMGVMHGYEIEFVFGLPLERRDNYTKAEEILSRSIVKRWANFAKYGNPNETQNNSTSWPVFKSTEQKYLTLNTESTRIMTKLRAQQCRFWTSFFPKVLEMTGNIDEAEWEWKAGFHRWNNYMMDWKNQFNDYTSKKESCVGL",Km,[6],40 µM
same,carboxylesterase activity relative to the level of activity seen with F227A,[7],approximately 50%
same,CPT-11 conversion,[8]; HPLC assay,less than 1%
same,SN-38 formation from CPT-11 (in words),"[8]; HPLC, compared to mock or wild-type",did not show detectable levels of SN-38
"4-1 variant (protein, Synthetic butyrylcholinesterase variant; VARIANT (77)..(77): H77F; VARIANT (227)..(227): Xaa = Ala; VARIANT (285)..(285): P285N; VARIANT (331)..(331): V331A) EDDIIIATKNGKVRGMNLTVFGGTVTAFLGIPYAQPPLGRLRFKKPQSLTKWSDIWNATKYANSCCQNIDQSFPGFFGSEMWNPNTDLSEDCLYLNVWIPAPKPKNATVLIWIYGGGFQTGTSSLHVYDGKFLARVERVIVVSMNYRVGALGFLALPGNPEAPGNMGLFDQQLALQWVQKNIAAFGGNPKSVTLFGESAGAASVSLHLLSPGSHSLFTRAILQSGSXNAPWAVTSLYEARNRTLNLAKLTGCSRENETEIIKCLRNKDPQEILLNEAFVVPYGTNLSVNFGPTVDGDFLTDMPDILLELGQFKKTQILVGVNKDEGTAFLAYGAPGFSKDNNSIITRKEFQEGLKIFFPGVSEFGKESILFHYTDWVDDQRPENYREALGDVVGDYNFICPALEFTKKFSEWGNNAFFYYFEHRSSKLPWPEWMGVMHGYEIEFVFGLPLERRDNYTKAEEILSRSIVKRWANFAKYGNPNETQNNSTSWPVFKSTEQKYLTLNTESTRIMTKLRAQQCRFWTSFFPKVLEMTGNIDEAEWEWKAGFHRWNNYMMDWKNQFNDYTSKKESCVGL",Km,[6],~7 µM
same,Km,[6]; listed as BChE variant 4-1,6.9 µM
same,fold increase in CPT-11 hydrolysis over wild-type BChE,[6],> 3000 fold
same,fold increase in CPT-11 hydrolysis over wild-type BChE,[6]; listed as BChE variant 4-1,> 3000 fold
same,fold increase in CPT-11 hydrolysis over wild-type BChE,[6]; listed as SEQ ID NO: 180,three thousand
same,fold improvement in the Km for CPT-11,[6],5-6 fold
same,fold improvement in the Km for CPT-11,[6]; listed as BChE variant 4-1,> 5 fold

# — patent publication US20080213281A1, “Butyrylcholinesterase Variants that Alter the Activity of Chemotherapeutic Agents” (priority 2002, published 2008)
